Biological target: T1, purified active human caspase-6 (human, UniProt P55212 24-179; P55212 194-293, limits assumed)
T1 sequence (looked up) 1: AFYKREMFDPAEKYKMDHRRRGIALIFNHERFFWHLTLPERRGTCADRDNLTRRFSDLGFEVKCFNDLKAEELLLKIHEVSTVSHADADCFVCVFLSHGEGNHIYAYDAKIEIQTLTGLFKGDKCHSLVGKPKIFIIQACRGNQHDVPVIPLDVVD
T1 sequence (looked up) 2: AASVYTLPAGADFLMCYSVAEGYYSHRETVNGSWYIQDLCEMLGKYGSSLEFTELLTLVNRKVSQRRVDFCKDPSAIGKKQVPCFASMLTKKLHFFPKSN
Assay: cell-based or functional assay

Binder: GRKKRRQRRRPPQSSEIVLDGTDN [ED11]
- Km of Michaelis-Menten curve, Caspase-Glo 6 assay with Z-VEID-aminoluciferin, 10 uM ED11: 3.3 fold

Reference: patent US20170121381A1 (RAMOT AT TEL AVIV UNIVERSITY, published 2017)
